Test results published in PMC10952621.

How the values were obtained:
[1] = biological target: LQTS-associated calmodulin variant D95V (human); experiment: ITC; Kv7.1-HB peptide titrated into CaM (~50 uM) in the cell; 50 mM Na-HEPES, 100 mM KCl, 2 mM MgCl2, pH 7.5, 5 mM CaCl2; 25 °C; two-site binding model
[2] = biological target: LQTS-associated calmodulin variant N97I (human); experiment: as above
[3] = biological target: LQTS-associated calmodulin variant D131H (human); experiment: as above
[4] = biological target: LQTS-associated calmodulin variant D95V (human); experiment: ITC; peptide titrated into CaM (~50 uM) in the cell; 50 mM Na-HEPES, 100 mM KCl, 2 mM MgCl2, pH 7.5, 1 mM EGTA (Ca2+-free); 25 °C; one-site binding model
[5] = biological target: LQTS-associated calmodulin variant N97I (human); experiment: as above
[6] = biological target: LQTS-associated calmodulin variant D131H (human); experiment: as above

Substance: Kv7.1-HB(507-536) peptide, helix B of the KCNQ1 C-terminus
- KD, first binding event [1]: 6.9 nM
- KD, second binding event [1]: 725 nM
- N, first binding event [1]: 0.8 sites
- N, second binding event [1]: 0.8 sites
- dH, first binding event [1]: -13.2 kcal/mol
- dH, second binding event [1]: -14.9 kcal/mol
- KD, first binding event [2]: 4.7 nM
- KD, second binding event [2]: 775 nM
- N, first binding event [2]: 1.1 sites
- N, second binding event [2]: 1.1 sites
- dH, first binding event [2]: -12.9 kcal/mol
- dH, second binding event [2]: -11.5 kcal/mol
- KD, first binding event [3]: 9.7 nM
- KD, second binding event [3]: 908 nM
- N, first binding event [3]: 0.8 sites
- N, second binding event [3]: 1.4 sites
- dH, first binding event [3]: -14.3 kcal/mol
- dH, second binding event [3]: -15.5 kcal/mol
- Kd [4]: 3900 nM
- dH [4]: 5.8 kcal/mol
- stoichiometry N [4]: 0.9 sites
- Kd [5]: 2400 nM
- dH [5]: 4.7 kcal/mol
- stoichiometry N [5]: 0.8 sites
- dH [6]: 3.3 kcal/mol
- stoichiometry N [6]: 0.9 sites
